Columns and labels:
[1] = target: T1, CD19 (Homo sapiens, UniProt P15391); experiment: CD19 expression versus in vitro activity of comparative ADC; assay type: cell-based; conditions: FIG. 27A
T1 construct: endogenous in cells
T1 sequence (P15391 20-556): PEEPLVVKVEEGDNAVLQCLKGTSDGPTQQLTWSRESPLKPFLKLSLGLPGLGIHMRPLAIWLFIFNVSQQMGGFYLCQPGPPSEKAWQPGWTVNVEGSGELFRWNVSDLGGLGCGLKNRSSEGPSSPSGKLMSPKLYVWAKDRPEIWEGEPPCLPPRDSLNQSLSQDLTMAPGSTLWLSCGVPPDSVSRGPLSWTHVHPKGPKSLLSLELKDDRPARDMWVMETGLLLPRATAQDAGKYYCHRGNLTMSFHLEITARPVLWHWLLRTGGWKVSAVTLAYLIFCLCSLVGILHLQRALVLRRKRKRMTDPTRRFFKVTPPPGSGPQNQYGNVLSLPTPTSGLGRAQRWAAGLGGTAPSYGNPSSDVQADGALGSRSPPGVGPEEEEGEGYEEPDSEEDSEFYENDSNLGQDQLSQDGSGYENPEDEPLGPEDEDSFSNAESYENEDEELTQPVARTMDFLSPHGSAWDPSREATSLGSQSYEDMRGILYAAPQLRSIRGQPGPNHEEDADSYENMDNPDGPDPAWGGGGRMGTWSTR

[2] = test system: panel of cancer cell lines; conditions: cited from earlier work

Row | Compound | correlation of CD19 expression with in vitro activity [1] | activity in a panel of cancer cell lines [2]
1 | Lonca Tesirine: loncastuximab tesirine-lpyl | CD19 expression correlated with in vitro activity | 
2 | COc1cc2c(cc1OCCCCCOc1cc3c(cc1OC)C(=O)N1C=C(C)C[C@H]1C=N3)N=C[C@@H]1CC(C)=CN1C2=O [SG3199] |  | picomolar activity

From US20260232824A1, “ANTI-CD180 BINDING MOLECULES AND USES THEREOF” (Champions Oncology, Inc., priority 2023, published 2026)
